Test results published in publication doi:10.1101/2021.08.06.455374 (bioRxiv, 2021).

Target: the molecule itself
Assay: SEC

B1: dolphin Prestin (SLC26A5) (natural protein)
chain: MDHVEETEILAATQRYYVERPIFSHPVLQERLHKKDKISESIGDKLKQAFTCTPKKIRNIIYMFLPITKWLPAYRFKEYVLGDIVSGISTGVLQLPQGLAFAMLAAVPPVFGLYSSFYPVIMYCFFGTSRHISIGPFAVISLMIGGVAVRLVPDDIVIPGGVNATNSTEARDALRVKVAMSVTLLTGIIQFCLGVCRFGFVAIYLTEPLVRGFTTAAAVHVFTSMLKYLFGVKTKRYSGIFSVVYSTVAVLQNVKNLNVCSLGVGLMVFGLLLGGKEFNERFKEKLPAPIPLEFFAVVMGTGISAGFSLHESYNVDVVGTLPLGLLPPANPDTSLFHLVYVDAIAIAIVGFSVTISMAKTLANKHGYQVDGNQELIALGLCNSTGSLFQTFAISCSLSRSLVQEGTGGKTQLAGCLASLMILLVILATGFLFESLPQAVLSAIVIVNLKGMFMQFSDLPFFWRTSKIELTIWLTTFVSSLFLGLDYGLITAVIIALMTVIYRTQSPSYIVLGQLPDTDVYIDIDAYEEVKEVPGIKIFQINAPIYYANSDLYSSALKRKTGVNPAFILGARRKAMKKYAKEVGNANMANATVVKVDAEVDAEDGTKPEEEEDEIKYPPIVTKSTLPEELQRFMPPGDNVHTIILDFTQVNFMDSVGVKTLAGIVKEYGDVGIYVYLAGCSAQVVSDLTQNQFFENPALLDLLFHSIHDAVLGSQVREALAEQEATAAPPQEDSEPNATPEA
  stoichiometry N: 2
